These results are taken from paper PMC8184810, “Light regulates stomatal development by modulating paracrine signaling from inner tissues”.

Series [1] concerns the target T1, MBP-HY5 (Arabidopsis thaliana, UniProt O24646 1-168).
T1 sequence: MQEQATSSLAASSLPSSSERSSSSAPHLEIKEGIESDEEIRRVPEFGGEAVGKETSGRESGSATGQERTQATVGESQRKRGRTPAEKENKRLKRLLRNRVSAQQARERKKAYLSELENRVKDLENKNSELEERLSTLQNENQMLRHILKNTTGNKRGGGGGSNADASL
Nature of the series: EMSA; EMSA: 20 fmol biotin probe, ~1 ug protein, 20 ul binding buffer (composition not given), on ice 1 h; pull-down: 10 mM Tris-HCl pH 7.5, 50 mM KCl, 5 mM MgCl2, 2.5% glycerol, 0.05% NP-40, 5 ug salmon sperm DNA, 10 ug BSA, 4 C 1 h. The note with it: protein: recombinant; tags: N-terminal MBP (pETG-40A); chain copies: 2; blunt. (A gel shift assay detects complexes by their altered migration in electrophoresis.)

The target of series [2] is T1, MBP-HY5. Kind of series: pull-down; 5 mM MgCl2; salmon sperm DNA; EMSA: 20 fmol biotin probe, ~1 ug protein, 20 ul binding buffer (composition not given), on ice 1 h; pull-down: 10 mM Tris-HCl pH 7.5, 50 mM KCl, 5 mM MgCl2, 2.5% glycerol, 0.05% NP-40, 5 ug salmon sperm DNA, 10 ug BSA, 4 C 1 h. The conditions noted are these: protein: recombinant; tags: N-terminal MBP (pETG-40A); chain copies: 2; blunt.

B1: P2 (STOMAGEN promoter) (dsDNA)
DNA 1: TCCTCTGTATTTTCAAACTCTTATCTCTACGTGTGCACAAACCTCACCATTAGATGATAA
DNA 2: TTATCATCTAATGGTGAGGTTTGTGCACACGTAGAGATAAGAGTTTGAAAATACAGAGGA
B1: in the series with MBP-HY5 [1], the binding result is “binds”.

B2: mP2 (Z-box mutated) (dsDNA)
DNA 1: TCCTCTGTATTTTCAAACTCTTATCTCAAAAAATGCACAAACCTCACCATTAGATGATAA
DNA 2: TTATCATCTAATGGTGAGGTTTGTGCATTTTTTGAGATAAGAGTTTGAAAATACAGAGGA
For the molecule B2, the binding result in the series with MBP-HY5 [2] is “no binding”.
